Neutralization potency compared with the mixture of Fabs plus dsDNA or the more potent of the two Fabs alone and neutralization potency (IC50) compared with 3BNC60 IgG against HIV-1 6535.3 data for two substances are collected here from patent publication US20160102137A1.

Common to all, as to experiment: cell-based or functional assay
In assay [1] the target is HIV-1 envelope (Env) spike trimer of strain CAP210 (HIV-1 strain CAP210).
Assay [2] deals with HIV-1 envelope (Env) spike trimer of strain SC4226618 (HIV-1 strain SC4226618).
Assay [3] addresses HIV-1 envelope (Env) spike trimer of strain 6535.3 (HIV-1 strain 6535.3).

Consider “PG16-60 bp-b12 hetero-diFab (bispecific antibody)”, for which the neutralization potency compared with the mixture of Fabs plus dsDNA or the more potent of the two Fabs alone in assay [1] and in assay [2] was 10 fold throughout.
Regarding 3BNC60-62 bp-3BNC60 homo-diFab, the neutralization potency (IC50) compared with 3BNC60 IgG against HIV-1 6535.3 in assay [3] was 100 fold.
